Key:
[1] = Activity-staining with D-alanine or L-alanine as substrate; assay type: biochemical, Thermosyntropha lipolytica; details: 10 mM D-alanine or L-alanine, 1.25 mM NADP^+, pH 8.0, 50° C., 30 minutes
Procedure: The activity was evaluated for the D-type amino acid dehydrogenase obtained in Example 2 above. The activity of the enzyme was evaluated by an activity-staining method due to a catalytic reaction of the enzyme. More specifically, an appropriate amount of enzyme solution was subjected to disc gel electrophoresis. […] The 2-(4-iodophenyl)-3-(4-nitrophenyl)-5-phenyl-2H-tetrazolium chloride in the reaction solution is reduced to form a […] formazan. A reaction formula is indicated below. In the following reaction formula, the D-type amino acid dehydrogenase is referred to as “meso-DAPDH”.

[2] = Thermal stability of the enzyme (residual activity after heat treatment); assay type: physicochemical, Thermosyntropha lipolytica; details: 70° C., 30 minutes, 10 mM phosphate buffer pH 7.2; activity at 50° C. as 100%
Procedure: The D-type amino acid dehydrogenase purified in Example 2 was heat-treated for 30 minutes under various temperature conditions (50, 55, 60, 65, or 70° C.) in 10 mM phosphate buffer solution (pH 7.2), and the residual activity after standing for 5 minutes in ice was confirmed. […] The residual activity after treatment at other temperatures was calculated as a relative activity, with the activity at 50° C. as 100%.

[3] = pH stability of the enzyme (residual activity after treatment in buffers); assay type: physicochemical, Thermosyntropha lipolytica; details: pH 5.0 to 9.5, 50° C. for 30 minutes, 100 mM buffer; activity at pH 9.0 as 100%
Procedure: The D-type amino acid dehydrogenase purified in Example 2 was heat-treated at 50° C. for 30 minutes in each 100 mM buffer solution (pH 1.5, 2.0, 2.5, 3.0, 3.5, 4.0, 4.5, 5.0, 5.5, 6.0, 6.5, 7.0, 7.5, 8.0, 8.5, 9.0, 9.5, 10.0, 10.5, 11.0, or 11.3), and the residual activity after standing for 5 minutes in ice was confirmed. […] The activity in the treatment at pH 9.0 was defined as 100%, and the residual activity after the treatment at other pH was calculated as the relative activity.

[4] = Optimum temperature in catalytic reaction; assay type: biochemical, Thermosyntropha lipolytica; details: meso-diaminopimelic acid as substrate, NADP^+
Text: The measurement results are illustrated in FIG. 6.

[5] = Optimum pH in catalytic reaction (deamination of meso-diaminopimelic acid); assay type: biochemical, Thermosyntropha lipolytica; details: NADP^+, 50° C.
Procedure: The optimum pH was evaluated for the D-type amino acid dehydrogenase obtained in Example 2. The activity of the enzyme was measured by determining an increase in absorbance at wavelength of 340 nm of NADPH produced by the enzymatic catalytic reaction.
The absorbance was measured by an ultraviolet-visible spectrophotometer UV-1800 (available from SHIMADZU). The specific activity of the enzyme was calculated from the concentration of the enzyme used and enzyme dilution rate using the obtained absorbance change and the following equation.

B1: D-type amino acid dehydrogenase: D-type amino acid dehydrogenase derived from Thermosyntropha lipolytica, amino acid sequence SEQ ID NO: 2, hexamer (protein, listed as Thermosyntropha lipolytica)
chain: MGEKIRVAIVGYGNIGRYALDAIKAAPDMELAGVVRRSSSLGDKPAELADVPVVGSIKELTGVKVALLCTPTRSVPEYAREILALGINTVDSYDIHGQLADLRLELDKVAKEHNAVAVISAGWDPGTDSMVRCMFEFMAPKGITYTNFGPGMSMGHSVAVKAVKGVKNALSMTIPLGTGVHRRMVYVELEPGADFAQVEKAVKTDPYFVKDETHVIQVEDVDALIDMGHGVLMERKGVSGGTHNQLLSFSMRINNPALTAQIMVASARASVKQKPGAYTMIQIPIIDYMYGDPDEIIRQLV
modifications: hexamer
[1]
  stereoselectivity for substrate (activity-staining): selectively acts on the D-amino acid
[2]
  residual activity after heat treatment: about 74%
[3]
  residual activity after pH treatment: ≥ 90%
[4]
  optimum temperature for activity: about 55 °C
[5]
  optimum pH for activity: 10.5
